Measurements from the supplement of paper PMC5998384.

What was measured:
[1] = tested on: HeLa Kyoto; experiment: solubility change mitosis vs G1/S (difference of NP-40 vs SDS log2 ratios) (log2 ratio difference); higher = more soluble in mitosis
[2] = tested on: HeLa Kyoto; experiment: solubility in G1/S (NP-40 vs SDS abundance) (log2 ratio); higher = more soluble; conditions: cell cycle stage: G1/S
[3] = tested on: HeLa Kyoto; experiment: melting temperature (median over replicates), in situ; higher = more thermally stable
[4] = tested on: HeLa Kyoto; experiment: thermal stability score vs G1/S (z-score of summed log2 fold changes over temperatures); higher = more thermally stable than in G1/S
[5] = cell cycle stage: early G1 (4.5 h after nocodazole release)
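For melting temperature (median over replicates), in situ in this document: HeLa Kyoto cells synchronized by double thymidine or nocodazole block, proteins quantified by TMT10plex mass spectrometry, three independent biological replicates.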
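For solubility change mitosis vs G1/S (difference of NP-40 vs SDS log2 ratios) in this document: synchronized HeLa Kyoto cells (double thymidine block for G1/S, nocodazole release for mitosis), protein amounts in NP-40 versus SDS lysates quantified by mass spectrometry, three biological replicates.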
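For solubility in G1/S (NP-40 vs SDS abundance) in this document: HeLa Kyoto cells arrested at G1/S by double thymidine block, proteins quantified by TMT10plex mass spectrometry in mild NP-40 versus SDS extracts, three biological replicates.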
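For thermal stability score vs G1/S (z-score of summed log2 fold changes over temperatures) in this document: synchronized HeLa Kyoto cells, proteins quantified by TMT10plex mass spectrometry, three biological replicates, mitosis taken 0.5 h after nocodazole release, G1/S directly after double thymidine block.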

Substance | solubility change mitosis (log2) [1] | solubility in G1/S (log2) [2] | melting temperature ([3]; cell cycle stage: mitosis) [°C] | thermal stability score [4, 5] | thermal stability score ([4]; cell cycle stage: mitosis) | melting temperature ([3]; cell cycle stage: G1/S) [°C]
MKEPLLGGECDKAVASQLGLLDEIKTEPDNAQEYCHRQQSRTQENELKINAVFSESASQLTAGIQLSLASSGVNKMLPSVSTTAIQVSCAGCKKILQKGQTAYQRKGSAQLFCSIPCITEYISSASSPVPSKRTCSNCSKDILNPKDVISVQLEDTTSCKTFCSLSCLSSYEEKRKPFVTICTNSILTKCSMCQKTAIIQYEVKYQNVKHNLCSNACLSKFHSANNFIMNCCENCGTYCYTSSSLSHILQMEGQSHYFNSSKSITAYKQKPAKPLISVPCKPLKPSDEMIETTSDLGKTELFCSINCFSAYSKAKMESSSVSVVSVVHDTSTELLSPKKDTTPVISNIVSLADTDVALPIMNTDVLQDTVSSVTATADVIVDLSKSSPSEPSNAVASSSTEQPSVSPSSSVFSQHAIGSSTEVQKDNMKSMKISDELCHPKCTSKVQKVKGKSRSIKKSCCADFECLENSKKDVAFCYSCQLFCQKYFSCGRESFATHGTSNWKKTLEKFRKHEKSEMHLKSLEFWREYQFCDGAVSDDLSIHSKQIEGNKKYLKLIIENILFLGKQCLPLRGNDQSVSSVNKGNFLELLEMRAKDKGEETFRLMNSQVDFYNSTQIQSDIIEIIKTEMLQDIVNEINDSSAFSIICDETINSAMKEQLSICVRYPQKSSKAILIKERFLGFVDTEEMTGTHLHRTIKTYLQQIGVDMDKIHGQAYDSTTNLKIKFNKIAAEFKKEEPRALYIHCYAHFLDLSIIRFCKEVKELRSALKTLSSLFNTICMSGEMLANFRNIYRLSQNKTCKKHISQSCWTVHDRTLLSVIDSLPEIIETLEVIASHSSNTSFADELSHLLTLVSKFEFVFCLKFLYRVLSVTGILSKELQNKTIDIFSLSSKIEAILECLSSERNDVYFKTIWDGTEEICQKITCKGFKVEKPSLQKRRKIQKSVDLGNSDNMFFPTSTEEQYKINIYYQGLDTILQNLKLCFSEFDYCKIKQISELLFKWNEPLNETTAKHVQEFYKLDEDIIPELRFYRHYAKLNFVIDDSCINFVSLGCLFIQHGLHSNIPCLSKLLYIALSWPITSASTENSFSTLPRLKTYLCNTMGQEKLTGPALMAVEQELVNKLMEPERLNEIVEKFISQMKEI [ZMYM1] | -0.06 | -0.155 | 50.4 | 0.329 | 0.818 | –
MKFLLDILLLLPLLIVCSLESFVKLFIPKRRKSVTGEIVLITGAGHGIGRLTAYEFAKLKSKLVLWDINKHGLEETAAKCKGLGAKVHTFVVDCSNREDIYSSAKKVKAEIGDVSILVNNAGVVYTSDLFATQDPQIEKTFEVNVLAHFWTTKAFLPAMTKNNHGHIVTVASAAGHVSVPFLLAYCSSKFAAVGFHKTLTDELAALQITGVKTTCLCPNFVNTGFIKNPSTSLGPTLEPEEVVNRLMHGILTEQKMIFIPSSIAFLTTLERILPERFLAVLKRKISVKFDAVIGYKMKAQ [HSD17B11] | -0.138 | -0.334 | 54.8 | 0.073 | -3.33 | 55.1
MKGTRAIGSVPERSPAGVDLSLTGLPPPVSRRPGSAATTKPIVRSVSVVTGSEQKRKVLEATGPGGSQAINNLRRSNSTTQVSQPRSGSPRPTEPTDFLMLFEGSPSGKKRPASLSTAPSEKGATWNVLDDQPRGFTLPSNARSSSALDSPAGPRRKECTVALAPNFTANNRSNKGAVGNCVTTMVHNRYTPSERAPPLKSSNQTAPSLNNIIKAATCEGSESSGFGKLPKNVSSATHSARNNTGGSTGLPRRKEVTEEEAERFIHQVNQATVTIQRWYRHQVQRRGAGAARLEHLLQAKREEQRQRSGEGTLLDLHQQKEAARRKAREEKARQARRAAIQELQQKRALRAQKASTAERGPPENPRETRVPGMRQPAQELSPTPGGTAHQALKANNTGGGLPAAGPGDRCLPTSDSSPEPQQPPEDRTQDVLAQDAAGDNLEMMAPSRGSAKSRGPLEELLHTLQLLEKEPDVLPRPRTHHRGRYAWASEVTTEDDASSLTADNLEKFGKLSAFPEPPEDGTLLSEAKLQSIMSFLDEMEKSGQDQLDSQQEGWVPEAGPGPLELGSEVSTSVMRLKLEVEEKKQAMLLLQRALAQQRDLTARRVKETEKALSRQLQRQREHYEATIQRHLAFIDQLIEDKKVLSEKCEAVVAELKQEDQRCTERVAQAQAQHELEIKKLKELMSATEKARREKWISEKTKKIKEVTVRGLEPEIQKLIARHKQEVRRLKSLHEAELLQSDERASQRCLRQAEELREQLEREKEALGQQERERARQRFQQHLEQEQWALQQQRQRLYSEVAEERERLGQQAARQRAELEELRQQLEESSSALTRALRAEFEKGREEQERRHQMELNTLKQQLELERQAWEAGRTRKEEAWLLNREQELREEIRKGRDKEIELVIHRLEADMALAKEESEKAAESRIKRLRDKYEAELSELEQSERKLQERCSELKGQLGEAEGENLRLQGLVRQKERALEDAQAVNEQLSSERSNLAQVIRQEFEDRLAASEEETRQAKAELATLQARQQLELEEVHRRVKTALARKEEAVSSLRTQHEAAVKRADHLEELLEQHRRPTPSTK [CEP131] | 0.357 | 0.0853 | 49.2 | -0.343 | 1.44 | 50.5
MKI67 | 1.29 | -1.82 | 52 | 5.66 | 0.979 | 49.4
MKKASRSVGSVPKVSAISKTQTAEKIKPENSSSASTGGKLVKPGTAASLSKTKSSDDLLAGMAGGVTVTNGVKGKKSTCPSAAPSASAPAMTTVENKSKISTGTASSTKRSTSTGNKESSSTRERLRERTRLNQSKKLPSAGQGANDMALAKRSRSRTATECDVRMSKSKSDNQISDRAALEAKVKDLLTLAKTKDVEILHLRNELRDMRAQLGINEDHSEGDEKSEKETIMAHQPTDVESTLLQLQEQNTAIREELNQLKNENRMLKDRLNALGFSLEQRLDNSEKLFGYQSLSPEITPGNQSDGGGTLTSSVEGSAPGSVEDLLSQDENTLMDHQHSNSMDNLDSECSEVYQPLTSSDDALDAPSSSESEGIPSIERSRKGSSGNASEVSVACLTERIHQMEENQHSTSEELQATLQELADLQQITQELNSENERLGEEKVILMESLCQQSDKLEHFSRQIEYFRSLLDEHHISYVIDEDVKSGRYMELEQRYMDLAENARFEREQLLGVQQHLSNTLKMAEQDNKEAQEMIGALKERSHHMERIIESEQKGKAALAATLEEYKATVASDQIEMNRLKAQLENEKQKVAELYSIHNSGDKSDIQDLLESVRLDKEKAETLASSLQEDLAHTRNDANRLQDAIAKVEDEYRAFQEEAKKQIEDLNMTLEKLRSDLDEKETERSDMKETIFELEDEVEQHRAVKLHDNLIISDLENTVKKLQDQKHDMEREIKTLHRRLREESAEWRQFQADLQTAVVIANDIKSEAQEEIGDLKRRLHEAQEKNEKLTKELEEIKSRKQEEERGRVYNYMNAVERDLAALRQGMGLSRRSSTSSEPTPTVKTLIKSFDSASQVPNPAAAAIPRTPLSPSPMKTPPAAAVSPMQRHSISGPISTSKPLTALSDKRPNYGEIPVQEHLLRTSSASRPASLPRVPAMESAKTLSVSRRSSEEVKRDISAQEGASPASLMAMGTTSPQLSLSSSPTASVTPTTRSRIREERKDPLSALAREYGGSKRNALLKWCQKKTEGYQNIDITNFSSSWNDGLAFCALLHTYLPAHIPYQELNSQDKRRNFMLAFQAAESVGIKSTLDINEMVRTERPDWQNVMLYVTAIYKYFET [SPECC1L] | 0.448 | -0.183 | 50.7 | 0.147 | -0.333 | 50.8
MKLIILEHYSQASEWAAKYIRNRIIQFNPGPEKYFTLGLPTGSTPLGCYKKLIEYYKNGDLSFKYVKTFNMDEYVGLPRDHPESYHSFMWNNFFKHIDIHPENTHILDGNAVDLQAECDAFEEKIKAAGGIELFVGGIGPDGHIAFNEPGSSLVSRTRVKTLAMDTILANARFFDGELTKVPTMALTVGVGTVMDAREVMILITGAHKAFALYKAIEEGVNHMWTVSAFQQHPRTVFVCDEDATLELKVKTVKYFKGLMLVHNKLVDPLYSIKEKETEKSQSSKKPYSD [GNPDA1] | -0.206 | 0.183 | 62.9 | -0.841 | -0.7 | 61.5
MKLKDTKSRPKQSSCGKFQTKGIKVVGKWKEVKIDPNMFADGQMDDLVCFEELTDYQLVSPAKNPSSLFSKEAPKRKAQAVSEEEEEEEGKSSSPKKKIKLKKSKNVATEGTSTQKEFEVKDPELEAQGDDMVCDDPEAGEMTSENLVQTAPKKKKNKGKKGLEPSQSTAAKVPKKAKTWIPEVHDQKADVSAWKDLFVPRPVLRALSFLGFSAPTPIQALTLAPAIRDKLDILGAAETGSGKTLAFAIPMIHAVLQWQKRNAAPPPSNTEAPPGETRTEAGAETRSPGKAEAESDALPDDTVIESEALPSDIAAEARAKTGGTVSDQALLFGDDDAGEGPSSLIREKPVPKQNENEEENLDKEQTGNLKQELDDKSATCKAYPKRPLLGLVLTPTRELAVQVKQHIDAVARFTGIKTAILVGGMSTQKQQRMLNRRPEIVVATPGRLWELIKEKHYHLRNLRQLRCLVVDEADRMVEKGHFAELSQLLEMLNDSQYNPKRQTLVFSATLTLVHQAPARILHKKHTKKMDKTAKLDLLMQKIGMRGKPKVIDLTRNEATVETLTETKIHCETDEKDFYLYYFLMQYPGRSLVFANSISCIKRLSGLLKVLDIMPLTLHACMHQKQRLRNLEQFARLEDCVLLATDVAARGLDIPKVQHVIHYQVPRTSEIYVHRSGRTARATNEGLSLMLIGPEDVINFKKIYKTLKKDEDIPLFPVQTKYMDVVKERIRLARQIEKSEYRNFQACLHNSWIEQAAAALEIELEEDMYKGGKADQQEERRRQKQMKVLKKELRHLLSQPLFTESQKTKYPTQSGKPPLLVSAPSKSESALSCLSKQKKKKTKKPKEPQPEQPQPSTSAN [DDX24] | 1.07 | -1.47 | 50.5 | -0.338 | 1.04 | 49.9
MKLKEVDRTAMQAWSPAQNHPIYLATGTSAQQLDATFSTNASLEIFELDLSDPSLDMKSCATFSSSHRYHKLIWGPYKMDSKGDVSGVLIAGGENGNIILYDPSKIIAGDKEVVIAQNDKHTGPVRALDVNIFQTNLVASGANESEIYIWDLNNFATPMTPGAKTQPPEDISCIAWNRQVQHILASASPSGRATVWDLRKNEPIIKVSDHSNRMHCSGLAWHPDVATQMVLASEDDRLPVIQMWDLRFASSPLRVLENHARGILAIAWSMADPELLLSCGKDAKILCSNPNTGEVLYELPTNTQWCFDIQWCPRNPAVLSAASFDGRISVYSIMGGSTDGLRQKQVDKLSSSFGNLDPFGTGQPLPPLQIPQQTAQHSIVLPLKKPPKWIRRPVGASFSFGGKLVTFENVRMPSHQGAEQQQQQHHVFISQVVTEKEFLSRSDQLQQAVQSQGFINYCQKKIDASQTEFEKNVWSFLKVNFEDDSRGKYLELLGYRKEDLGKKIALALNKVDGANVALKDSDQVAQSDGEESPAAEEQLLGEHIKEEKEESEFLPSSGGTFNISVSGDIDGLITQALLTGNFESAVDLCLHDNRMADAIILAIAGGQELLARTQKKYFAKSQSKITRLITAVVMKNWKEIVESCDLKNWREALAAVLTYAKPDEFSALCDLLGTRLENEGDSLLQTQACLCYICAGNVEKLVACWTKAQDGSHPLSLQDLIEKVVILRKAVQLTQAMDTSTVGVLLAAKMSQYANLLAAQGSIAAALAFLPDNTNQPNIMQLRDRLCRAQGEPVAGHESPKIPYEKQQLPKGRPGPVAGHHQMPRVQTQQYYPHGENPPPPGFIMHGNVNPNAAGQLPTSPGHMHTQVPPYPQPQPYQPAQPYPFGTGGSAMYRPQQPVAPPTSNAYPNTPYISSASSYTGQSQLYAAQHQASSPTSSPATSFPPPPSSGASFQHGGPGAPPSSSAYALPPGTTGTLPAASELPASQRTGPQNGWNDPPALNRVPKKKKMPENFMPPVPITSPIMNPLGDPQSQMLQQQPSAPVPLSSQSSFPQPHLPGGQPFHGVQQPLGQTGMPPSFSKPNIEGAPGAPIGNTFQHVQSLPTKKITKKPIPDEHLILKTTFEDLIQRCLSSATDPQTKRKLDDASKRLEFLYDKLREQTLSPTITSGLHNIARSIETRNYSEGLTMHTHIVSTSNFSETSAFMPVLKVVLTQANKLGV [SEC31A] | -0.144 | 0.0843 | 50 | 1.55 | 4.43 | 48.9
